Paper PMC3814384, “YoeB–ribosome structure: a canonical RNase that requires the ribosome for its specific activity” (Nucleic Acids Research, 2013)

Target: the molecule itself
Assay: crystal structure; T. thermophilus 70S ribosome 4.4 uM with mRNA MOO4b (2'-O-methylated A-site codon) and tRNAfMet, YoeB added to 44 uM, buffer G (5 mM HEPES pH 7.5, 50 mM KCl, 10 mM NH4Cl, 10 mM Mg-acetate, 6 mM 2-mercaptoethanol); pre-cleavage state, 3.35 A

B1: Escherichia coli YoeB (enzyme, UniProt P69348 1-84, looked up)
chain: MKLIWSEESWDDYLYWQETDKRIVKKINELIKDTRRTPFEGKGKPEPLKHNLSGFWSRRITEEHRLVYAVTDDSLLIAACRYHY
notes: In the crystal two copies (monomers A and B) sit on the ribosomal A site as a homodimer; also called YeoB; monomer A; source: E. coli BL21(DE3), co-expressed with His-tagged YefM
stoichiometry N: 2
